Results published in publication PMC10989752, “LipR functions as an intracellular pH regulator in Bacillus thuringiensis under glucose conditions”.

B1: 30-bp footprint fragment (dsDNA)
DNA 1: ATATAATCAATTTAAGAAAACGTTTTCATG
DNA 2: CATGAAAACGTTTTCTTAAATTGATTATAT
B2: D6 (dsDNA)
DNA 1: CAATTTAAGAAAACGTTTTCATG
DNA 2: CATGAAAACGTTTTCTTAAATTG
B3: 18-bp minimal LipR site (dsDNA)
DNA 1: TAAGAAAACGTTTTCATG
DNA 2: CATGAAAACGTTTTCTTA

Target: T1, LipR (Bacillus thuringiensis BMB171, UniProt A0A0G3DYA8 1-337)
T1 sequence: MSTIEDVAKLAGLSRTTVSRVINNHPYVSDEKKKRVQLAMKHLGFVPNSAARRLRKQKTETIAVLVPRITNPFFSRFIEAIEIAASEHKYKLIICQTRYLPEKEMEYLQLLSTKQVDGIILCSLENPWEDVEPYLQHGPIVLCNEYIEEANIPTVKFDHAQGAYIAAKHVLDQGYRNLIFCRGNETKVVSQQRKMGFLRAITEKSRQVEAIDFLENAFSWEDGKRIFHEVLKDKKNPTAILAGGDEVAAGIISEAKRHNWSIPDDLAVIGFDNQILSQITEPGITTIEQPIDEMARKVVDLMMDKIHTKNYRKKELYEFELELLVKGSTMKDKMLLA
Assay: EMSA; LipR: 25 mM Tris pH 8.5-9, 150 mM NaCl, 10% glycerol; CcpA/AbrB: 50 mM Tris-HCl pH 7.5, 10 mM MgCl2, 1 mM DTT, 100 mM NaCl; 28 C, 25 min, 10 ul; 500 ng poly(dI-dC) when needed; 6% native PAGE, 0.5x TBE
Conditions: protein: recombinant, tags: C-terminal His (pET-28a), chain copies: 2

Row | Binder | binding result | binding result (blunt)
1 | B1 | binds | –
2 | B2 | binds | –
3 | B3 | – | binds
